Reference: paper doi:10.1101/2024.06.03.596960 (bioRxiv, 2024)
“And” between values parts separate entries of the source, which are not always exact repeats. Equal entries are not always repeated.

Legend:
[1] = target: BACH1 BTB domain (residues 7-128), wild type, tag-free (UniProt O14867); experiment: SEC-MALS
[2] = target: biotinylated ^AviSKP1-FBXO22(12-403) (UniProt P63208); experiment: BLI
[3] = target: biotinylated ^AviSKP1-FBXO22(12-403) (UniProt P63208); experiment: SPR
[4] = target: BACH1^BTB A53V mutant (cancer-associated, TCGA) (UniProt O14867); experiment: SEC-MALS
BACH1^BTB E12R = BACH1^BTB E12R (UniProt O14867); experiment: SEC-MALS
BACH1^BTB F9A = BACH1^BTB F9A (UniProt O14867); experiment: SEC-MALS
BACH1^BTB S13A = BACH1^BTB S13A (UniProt O14867); experiment: SEC-MALS
BACH1^BTB S13D = BACH1^BTB S13D (UniProt O14867); experiment: SEC-MALS
BACH1^BTB Y11A = BACH1^BTB Y11A (UniProt O14867); experiment: SEC-MALS
BACH1^BTB Y11F = BACH1^BTB Y11F (UniProt O14867); experiment: SEC-MALS
[5] = target: BACH1^BTB Y11H mutant (cancer-associated, TCGA) (UniProt O14867); experiment: SEC-MALS
BTFA-modified BACH1^BTB = BTFA-modified BACH1^BTB (UniProt O14867)
His10-TEV-BACH1^BTB = His10-TEV-BACH1^BTB (UniProt O14867); experiment: AlphaScreen or HTRF
[6] = target: BACH1 BTB domain (residues 7-128), wild type, tag-free (UniProt O14867); experiment: NMR titration
[7] = target: SKP1-FBXO22 heterodimer, wild type, tag-free (UniProt P63208); experiment: mass photometry
mass photometry = target: the molecule itself; experiment: mass photometry

biotinylated ^AviSKP1-FBXO22(12-403), sequence (P63208 2-163, chain 1 of 2): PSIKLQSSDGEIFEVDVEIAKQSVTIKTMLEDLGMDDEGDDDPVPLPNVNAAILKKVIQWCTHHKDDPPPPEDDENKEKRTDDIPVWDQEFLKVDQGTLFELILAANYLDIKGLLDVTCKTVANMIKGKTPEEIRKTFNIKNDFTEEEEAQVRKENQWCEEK
biotinylated ^AviSKP1-FBXO22(12-403), sequence (Q8NEZ5 12-403, chain 2 of 2, further chain): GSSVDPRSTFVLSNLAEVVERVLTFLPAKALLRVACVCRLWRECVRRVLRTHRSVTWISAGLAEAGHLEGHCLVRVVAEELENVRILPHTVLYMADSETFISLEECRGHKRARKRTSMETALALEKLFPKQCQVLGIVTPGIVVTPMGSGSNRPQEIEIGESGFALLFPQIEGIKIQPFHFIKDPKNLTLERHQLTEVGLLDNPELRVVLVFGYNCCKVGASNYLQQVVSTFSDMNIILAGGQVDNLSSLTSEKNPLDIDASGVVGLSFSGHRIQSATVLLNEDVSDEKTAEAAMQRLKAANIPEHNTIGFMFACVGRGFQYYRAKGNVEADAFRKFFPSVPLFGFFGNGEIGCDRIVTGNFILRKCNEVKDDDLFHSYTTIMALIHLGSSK
SKP1-FBXO22 heterodimer, wild type, tag-free (UniProt P63208), sequence (P63208 2-163, chain 1 of 2): as the sequence (P63208 2-163, chain 1 of 2) above
SKP1-FBXO22 heterodimer, wild type, tag-free (UniProt P63208), sequence (Q8NEZ5 12-403, chain 2 of 2, further chain): as the sequence (Q8NEZ5 12-403, chain 2 of 2, further chain) above

BACH1 BTB domain (residues 7-128), wild type, tag-free (from UniProt O14867 7-128) (domain or fragment)
stoichiometry N [1]: 2 | Kd [2]: 124 nM and 83.9 nM | Kd [3]: 57.7 nM

BACH1^BTB A53V mutant (cancer-associated, TCGA) (from UniProt O14867 7-128) (domain or fragment)
stoichiometry N [4]: 2

BACH1^BTB E12R (from UniProt O14867 7-128) (domain or fragment)
stoichiometry N (BACH1^BTB E12R): 2

BACH1^BTB F9A (from UniProt O14867 7-128) (domain or fragment)
stoichiometry N (BACH1^BTB F9A): 2

BACH1^BTB S13A (from UniProt O14867 7-128) (domain or fragment)
stoichiometry N (BACH1^BTB S13A): 2

BACH1^BTB S13D (from UniProt O14867 7-128) (domain or fragment)
stoichiometry N (BACH1^BTB S13D): 2

BACH1^BTB Y11A (from UniProt O14867 7-128) (domain or fragment)
stoichiometry N (BACH1^BTB Y11A): 2

BACH1^BTB Y11F (from UniProt O14867 7-128) (domain or fragment)
stoichiometry N (BACH1^BTB Y11F): 2

BACH1^BTB Y11H mutant (cancer-associated, TCGA) (from UniProt O14867 7-128) (domain or fragment)
stoichiometry N [5]: 2

BTFA-modified BACH1^BTB (from UniProt O14867 7-128) (domain or fragment)
stoichiometry N (BTFA-modified BACH1^BTB): 2

SKP1-FBXO22 heterodimer, wild type, tag-free (from UniProt P63208 2-163; Q8NEZ5 12-403) (complex)
IC50 (His10-TEV-BACH1^BTB): 495 nM | stoichiometry N (equivalent SKP1-FBXO22) [6]: 1

B1: full-length BACH1 (residues 2-736), tag-free (natural protein)
chain: SLSENSVFAYESSVHSTNVLLSLNDQRKKDVLCDVTIFVEGQRFRAHRSVLAACSSYFHSRIVGQADGELNITLPEEVTVKGFEPLIQFAYTAKLILSKENVDEVCKCVEFLSVHNIEESCFQFLKFKFLDSTADQQECPRKKCFSSHCQKTDLKLSLLDQRDLETDEVEEFLENKNVQTPQCKLRRYQGNAKASPPLQDSASQTYESMCLEKDAALALPSLCPKYRKFQKAFGTDRVRTGESSVKDIHASVQPNERSENECLGGVPECRDLQVMLKCDESKLAMEPEETKKDPASQCPTEKSEVTPFPHNSSIDPHGLYSLSLLHTYDQYGDLNFAGMQNTTVLTEKPLSGTDVQEKTFGESQDLPLKSDLGTREDSSVASSDRSSVEREVAEHLAKGFWSDICSTDTPCQMQLSPAVAKDGSEQISQKRSECPWLGIRISESPEPGQRTFTTLSSVNCPFISTLSTEGCSSNLEIGNDDYVSEPQQEPCPYACVISLGDDSETDTEGDSESCSAREQECEVKLPFNAQRIISLSRNDFQSLLKMHKLTPEQLDCIHDIRRRSKNRIAAQRCRKRKLDCIQNLESEIEKLQSEKESLLKERDHILSTLGETKQNLTGLCQKVCKEAALSQEQIQILAKYSAADCPLSFLISEKDKSTPDGELALPSIFSLSDRPPAVLPPCARGNSEPGYARGQESQQMSTATSEQAGPAEQCRQSGGISDFCQQMTDKCTTDE
stoichiometry N (BACH1^FL per SKP1-FBXO22 heterodimer) [7]: 2 | stoichiometry N (mass photometry): 2 | Kd [2]: 44.3 nM and 28.6 nM | koff [2]: 0.0021 s⁻¹ | kon [2]: 470000 M⁻¹ s⁻¹
